Source: article PMC2292230
Like-named read-outs stand apart in the source and are kept apart here.

Columns and labels:
Test in all cases: SPR
[1] = target: mouse CD1d loaded with α-GalCer (mouse) (UniProt P11609)
[2] = target: human CD1d loaded with α-GalCer, wild type (human) (UniProt P15813)
[3] = target: human CD1d Arg79 to Ala mutant loaded with α-GalCer (human)
[4] = target: human CD1d Gln150 to Ala mutant loaded with α-GalCer (human)
[5] = target: human CD1d Lys86 to Ala mutant loaded with α-GalCer (human)
[6] = target: human CD1d Met87 to Ala mutant loaded with α-GalCer (human)
[7] = target: human CD1d Val147 to Ala mutant loaded with α-GalCer (human)
[8] = target: human CD1d loaded with α-GalCer, wild type (human) (UniProt P15813); remark: listed apart in the source

UniProt P11609, sequence (P11609 22-336): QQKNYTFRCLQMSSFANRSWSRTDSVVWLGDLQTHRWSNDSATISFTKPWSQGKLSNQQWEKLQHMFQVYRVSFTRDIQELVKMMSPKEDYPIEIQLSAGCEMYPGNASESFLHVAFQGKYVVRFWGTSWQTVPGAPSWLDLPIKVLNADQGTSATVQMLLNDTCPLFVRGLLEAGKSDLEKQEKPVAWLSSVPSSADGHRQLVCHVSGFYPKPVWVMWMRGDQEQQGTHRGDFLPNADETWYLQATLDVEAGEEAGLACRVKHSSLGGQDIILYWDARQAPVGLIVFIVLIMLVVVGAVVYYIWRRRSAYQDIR
UniProt P15813, sequence (P15813 20-301): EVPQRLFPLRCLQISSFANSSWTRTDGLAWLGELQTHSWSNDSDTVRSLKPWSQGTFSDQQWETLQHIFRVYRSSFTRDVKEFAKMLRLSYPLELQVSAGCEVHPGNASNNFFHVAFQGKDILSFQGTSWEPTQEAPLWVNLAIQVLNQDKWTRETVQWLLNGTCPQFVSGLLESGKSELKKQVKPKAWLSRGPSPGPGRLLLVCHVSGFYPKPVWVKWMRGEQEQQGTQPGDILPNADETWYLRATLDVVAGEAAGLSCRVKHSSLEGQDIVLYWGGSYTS

Substance | Kd [1] | Kd [2] | further results
human NKT TCR (NKT15) Arg103α to Ala mutant | 2560 nM | – | –
human NKT TCR (NKT15) Glu56β to Ala mutant | 720 nM | – | –
human NKT TCR (NKT15) Gly96αAla mutant | 1190 nM | 1070 nM | –
human NKT TCR (NKT15) Pro28αAla mutant | 4750 nM | 5440 nM | –
human NKT TCR (NKT15) Ser30αAla mutant | 1160 nM | – | –
human NKT TCR (NKT15) Tyr103βAla mutant | 820 nM | 710 nM | –

Continued by falling Kd [1], values first:

Kd [1] | Kd [2] | Substance | further results
1190 nM | 730 nM | human NKT TCR (NKT15) Asn53β to Ala mutant | –
940 nM | 460 nM | human NKT TCR (NKT15), wild type | Kd [3]: 350 nM; Kd [4]: 2500 nM; Kd [5]: 2830 nM; Kd [6]: 7900 nM; Kd [7]: 3600 nM; Kd [8]: 580 nM
